From patent US10456465B2, “Compositions, kits, and methods for the diagnosis prognosis, monitoring, treatment and modulation of post-transplant lymphoproliferative disorders and hypoxia associated angiogenesis disorders using galectin-1” (Dana-Farber Cancer Institute, Inc., priority 2009, dated 2019) come the findings set out here.

For one test, the target named is T1, Gal8 (Homo sapiens, UniProt O00214).
T1 construct: made in house
T1 sequence (O00214 1-317): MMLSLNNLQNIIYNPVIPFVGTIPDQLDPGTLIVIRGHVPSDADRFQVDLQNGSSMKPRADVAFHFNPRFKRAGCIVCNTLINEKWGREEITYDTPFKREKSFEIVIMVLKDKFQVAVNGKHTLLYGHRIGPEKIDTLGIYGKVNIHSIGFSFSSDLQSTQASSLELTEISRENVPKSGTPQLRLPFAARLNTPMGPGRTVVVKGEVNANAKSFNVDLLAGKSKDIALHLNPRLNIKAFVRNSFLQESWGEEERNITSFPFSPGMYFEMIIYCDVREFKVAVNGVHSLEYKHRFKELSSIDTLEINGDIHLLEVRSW
As to the kind of experiment: Binding of 488-Gal8 to HUVEC. The following applies: 488-Gal8 20 μg/ml, mAb 0.5 μM. As for the experimental part:
For glycophenotyping, ECs were incubated with biotinylated L-PHA, LEL, SNA, MAL II, PNA and HPA (all from Vector). Recombinant Gal1 was purified as described in Ilarregui et al. (2009) Nat Immunol 10, 981-991. For binding assays, ECs were incubated for 1 h at 4° C. with dyLight 488-labeled galectins in the absence or presence of lactose, sucrose, anti-Gal1 or isotype control mAb or following transfection with GnT5, GCNT1 or scrambled siRNA. Cells were analyzed on a FACSAria (BD Biosciences). For segregation, ECs were treated with Gal1 for 1 h, fixed and incubated for 1 h with anti-human VEGFR2 antibody (55B11; Cell Signaling) as described in Ilarregui et al. (2009) Nat Immunol 10, 981-991. Cells were analyzed on a Nikon laser confocal microscope (Eclipse E800).
DyLight 488-conjugated Gal1 (488-Gal1) was obtained using DyLight labeling kit (Thermo Scientific). Inhibitors of Jak2-STAT3 (AG490; 5 μM), Jnk-SAP (SP600125; 20 μM), p38 (SB202190; 10 μM), HIF-1α (3 μM) and O-glycosylation (benzyl-α-Ga1NAc; 2 mM) were from Calbiochem. Inhibitors of Erk1/2 (U0126; 5 μM), PI(3)K-Akt (Ly294002; 2 μM) and NF-κB (BAY 11-7082; 1 μM), ROS (N-acetyl-cysteine; NAC), N-glycosylation (swainsonine; 3 μM), lactose or sucrose (30 mM) were from Sigma. PNGase F (25 U/μg protein) was from New England Biolabs. […]

A further test relates to B16 tumors. As to the kind of experiment: Syngeneic B16 melanoma model. The format is in vivo, mouse. How it is done:
Wild-type KS cells or shRNA clones (5×10^6 cells) were injected subcutaneously into 6- to 8-week old nude mice. Wild-type B16 cells or shRNA clones (2×10^5 cells) were injected into 6- to 8-week old B6 or B6/Rag^−/− mice and tumor development was monitored as described in Rubinstein et al. (2004) Cancer Cell 5, 241-251. Treatments with 8F4F8G7 mAb or control isotype (2.5, 7.5 or 15 mg/kg; i.p. injections every three days) were initiated when tumors reached 100 mm^3. Mice were sacrificed when tumors reached a volume greater than 2 cm^3. At 2 weeks after tumor challenge, lymph node cells (5×10^5 cells/well) were restimulated for 72 h with 1×10^4 irradiated (4,000 rads) B16 cells and were analyzed for proliferation and cytokine production. For adoptive transfer, splenic T cells (5×10^6) from tumor-bearing mice were labeled with CFSE (Molecular Probes) and injected through the tail vein into tumor-bearing recipient mice treated with 8F4F8G7 or control mAb. In related studies, fluorescent beads (3 μm; BD Biosciences), rather than splenic T cells, were injected into tumor-bearing animals treated with 8F4F8G7 or control antibody. CFSE^+ cells or PerCP-labeled beads were analyzed after 24 h or 15 min respectively by flow cytometry in tumor parenchyma and spleen.
For immunostaining, mice were anesthetized and cardiac-perfused with PBS and 4% paraformaldehyde and tissues were embedded in OCT. To visualize the vasculature, mice were intravenously injected with FITC-conjugated Griffonia simplicifolia Lectin-1 (GLS-1B4, Vector) prior to heart perfusion and fixation. Pericyte maturation was assessed using antibodies specific for αSMA (1A4; Dako), desmin (D33; Dako), PDGFRβ (APB5; Biolegend) and Rgs5 (HPA001821; Prestige Sigma). The fraction of pericyte coverage was calculated as the ratio of αSMA area to the FITC-GLS-1B4 or CD31 stained area using a specific anti-CD31 antibody (Mec13.3; BD Biosciences). For immunoperoxidase staining, paraffin-embedded human tumor sections were incubated with anti-CD31 (JC/70A; Dako) and anti-Gal1 antibodies as described in Juszczynski et al. (2007) Proc Natl Acad Sci USA 104, 13134-13139 using the Vectastain Elite ABC kit (Vector). Studies with patient biopsies were subjected to Institutional Review Boards approval (CEMIC and IBYME). Hypoxia was detected after injection of pimonidazole hydrochloride for 30 min following immunostaining with Hypoxyprobe-1 plus kit (Natural Pharmacia International).

B1: anti-Gal1 monoclonal antibody 8F4F8G7 (antibody, V domains shown)
VH: EVQLQQSVAEFVRPGASVRLSCTASGFNIKNTYIHWVRQRPEQGLEWIGKIDPANGNTKYVPEFQGKATMTADTSSNTVYLHLSSLTSEDTAIYYCVDGYYGWYFAVWGTGTTVTVSS
VL: QAVVTQESALTTSPGETVTLTCRSSTGAVTTSNYANWVQEKPDHLFTGLIGATNNRAPGVPARFSGSLIGDKAVLTITGAQTEDEAIYFCALWYRNHFIFGSGTKVTVL
notes: Murine hybridoma mAb (deposit PTA-10535), lambda light chain; also called 14-19 8F4-F8-G7; clone 8F4.8F.67
For the molecule B1, in the test with Gal8, the “effect on binding of Gal8 to the EC surface” value is “did not interfere”. The “microvessel density of tumors” value in the test with B16 tumors (30 days post-inoculation) is on record as “only a slight decrease”. Further, the “frequency of CD34+ cells” value in the test on B16 tumors (day 20) is given as “No significant changes”. Moreover, the decreased tumor burden in the test with B16 tumors (immunocompetent mice, established B16 tumors, day 20) is given as around 86%. Moreover, the anti-tumor effect entry in the test on B16 tumors (immunodeficient B6/Rag−/− mice) is recorded as “only a partial anti-tumor effect”. In the test with B16 tumors (vs isotype control), the coverage by pericytes entry is listed as “greater coverage”; the “dilated and tortuous vessels” value is listed as “fewer”; the pericyte phenotype result was “more mature phenotype”; the “tumor hypoxia (pimonidazole adducts)” value is on record as “markedly alleviated”. Besides, the “tumor vasculature: vessel diameter and distribution” value with B16 tumors (vs isotype control, lectin-perfused vessels) was “resembled normal vascular networks”. Also, in the test with B16 tumors (vs isotype-treated tumors), the expression of desmin result is recorded as “no significant variations”, the “pericyte expression of platelet-derived growth factor receptor (PDGFR)β” value is recorded as “lower expression”, the “pericyte expression of regulator of G-protein signaling 5 (Rgs5)” value is recorded as “lower expression” and the “pericyte expression of α-smooth muscle actin (αSMA)” value was “higher expression”.
